Source: PMC11931385, “Structural and functional analysis of cancer-associated missense variants in the retinoblastoma protein pocket domain” (The Journal of Biological Chemistry, 2025)
No end group written: not given here. TMR = tetramethyl rhodamine dye

Experiments:
Assay in all cases: fluorescence polarisation; 25 °C; unlabeled Rb^P titrated against 1.5 nM TMR-E2F1^TD or 7.5 nM TMR-E7^LxCxE; 25 mM Tris pH 8.0, 200 mM NaCl, 1 mM DTT, 0.1% Tween-20; 2 min incubation; quadratic fit; apparent Kd for the variants, Kd for WT
Details in all cases: both partners purified
Rb^P R763T = target: T1, Rb^P R763T (human, UniProt P06400 380-788, R763T)
T1 construct: also called variant 75
T1 sequence (looked up): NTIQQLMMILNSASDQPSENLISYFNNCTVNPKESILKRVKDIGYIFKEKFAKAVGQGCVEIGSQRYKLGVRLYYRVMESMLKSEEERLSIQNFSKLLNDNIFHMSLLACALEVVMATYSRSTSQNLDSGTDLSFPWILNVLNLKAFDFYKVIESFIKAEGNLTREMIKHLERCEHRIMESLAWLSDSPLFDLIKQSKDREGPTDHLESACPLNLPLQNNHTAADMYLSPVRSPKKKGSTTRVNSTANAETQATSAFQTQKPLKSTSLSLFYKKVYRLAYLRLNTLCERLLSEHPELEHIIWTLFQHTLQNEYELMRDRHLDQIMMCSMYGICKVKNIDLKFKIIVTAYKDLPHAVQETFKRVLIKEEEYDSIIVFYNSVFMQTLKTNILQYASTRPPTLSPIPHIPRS

Rb^P L550I = target: T2, Rb^P L550I (human, UniProt P06400 380-788, L550I)
T2 construct: also called variant 27
T2 sequence (looked up): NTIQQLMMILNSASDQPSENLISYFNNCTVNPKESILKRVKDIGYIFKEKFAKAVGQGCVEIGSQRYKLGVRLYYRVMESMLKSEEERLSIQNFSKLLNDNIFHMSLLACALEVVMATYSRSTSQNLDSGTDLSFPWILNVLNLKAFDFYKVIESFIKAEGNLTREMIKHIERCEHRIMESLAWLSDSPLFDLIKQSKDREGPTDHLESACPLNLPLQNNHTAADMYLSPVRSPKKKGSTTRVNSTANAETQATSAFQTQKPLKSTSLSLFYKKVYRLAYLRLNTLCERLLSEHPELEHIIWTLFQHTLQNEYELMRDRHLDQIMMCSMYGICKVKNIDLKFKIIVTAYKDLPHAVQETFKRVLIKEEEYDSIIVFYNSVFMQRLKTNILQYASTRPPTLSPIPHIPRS

Rb^P A490S = target: T3, Rb^P A490S (human, UniProt P06400 380-788, A490S)
T3 construct: also called variant 15
T3 sequence (looked up): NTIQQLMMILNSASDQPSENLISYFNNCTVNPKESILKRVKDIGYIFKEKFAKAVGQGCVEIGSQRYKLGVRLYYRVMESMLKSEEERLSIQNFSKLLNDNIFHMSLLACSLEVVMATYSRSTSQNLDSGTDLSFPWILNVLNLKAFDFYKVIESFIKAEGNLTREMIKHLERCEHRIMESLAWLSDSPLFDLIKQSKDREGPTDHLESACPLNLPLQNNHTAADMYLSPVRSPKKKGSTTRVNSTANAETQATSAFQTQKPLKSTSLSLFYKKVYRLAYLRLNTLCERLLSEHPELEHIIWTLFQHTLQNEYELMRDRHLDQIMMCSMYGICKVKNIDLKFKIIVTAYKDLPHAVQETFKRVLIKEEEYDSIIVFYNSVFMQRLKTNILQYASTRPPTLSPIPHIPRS

Rb^P E675Q = target: T4, Rb^P E675Q (human, UniProt P06400 380-788, E675Q)
T4 construct: also called variant 56
T4 sequence (looked up): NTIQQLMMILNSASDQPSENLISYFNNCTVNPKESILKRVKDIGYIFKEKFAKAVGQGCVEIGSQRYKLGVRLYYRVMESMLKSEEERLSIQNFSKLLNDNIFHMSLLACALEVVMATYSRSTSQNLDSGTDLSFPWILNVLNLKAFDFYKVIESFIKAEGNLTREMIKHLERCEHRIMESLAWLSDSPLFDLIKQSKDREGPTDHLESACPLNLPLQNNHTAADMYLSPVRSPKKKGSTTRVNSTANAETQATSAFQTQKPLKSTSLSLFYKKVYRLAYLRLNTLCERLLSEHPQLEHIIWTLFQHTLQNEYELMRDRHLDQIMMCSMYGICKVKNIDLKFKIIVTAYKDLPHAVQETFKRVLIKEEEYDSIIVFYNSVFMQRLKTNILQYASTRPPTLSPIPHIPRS

Rb^P M761L = target: T5, Rb^P M761L (human, UniProt P06400 380-788, M761L)
T5 construct: also called variant 74
T5 sequence (looked up): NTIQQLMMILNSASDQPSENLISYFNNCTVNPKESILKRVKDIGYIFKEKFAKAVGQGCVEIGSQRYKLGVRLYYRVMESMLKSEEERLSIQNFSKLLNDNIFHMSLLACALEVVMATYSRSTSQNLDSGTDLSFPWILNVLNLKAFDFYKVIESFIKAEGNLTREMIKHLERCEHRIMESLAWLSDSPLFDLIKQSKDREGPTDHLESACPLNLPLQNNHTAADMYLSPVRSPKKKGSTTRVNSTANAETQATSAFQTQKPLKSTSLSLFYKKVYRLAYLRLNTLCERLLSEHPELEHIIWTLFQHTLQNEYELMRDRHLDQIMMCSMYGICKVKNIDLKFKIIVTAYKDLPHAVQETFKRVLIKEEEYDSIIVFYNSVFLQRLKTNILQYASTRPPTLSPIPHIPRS

B1: TMR-E2F1^TD, peptide of the E2F1 transactivation domain (peptide)
peptide: {TMR}-GEGIRDLFDCDFGDLTPLD
notes: also called E2F^TD; source: synthetic peptide, bought: GenScript
**Q.** For B1, which Kd (Rb^P R763T) is on record?
**A.** 37 nM

**Q.** What about the Kd (Rb^P L550I) of the same binder?
**A.** 41 nM

**Q.** What about the Kd (Rb^P A490S) of the same binder?
**A.** 17 nM

**Q.** What about the Kd (Rb^P E675Q) of the same binder?
**A.** 35 nM

**Q.** What about the Kd (Rb^P M761L) of the same binder?
**A.** 32 nM

B2: TMR-E7^LxCxE, LxCxE peptide of the E7 oncoprotein from HPV (peptide)
peptide: DLYCYEQLN
modifications: also: TMR label, position not given here
notes: source: synthetic peptide, bought: GenScript
**Q.** With B2 as the binder, how does the Kd (Rb^P R763T) read?
**A.** 21 nM

**Q.** And the Kd (Rb^P L550I)?
**A.** 3 nM

**Q.** What about the Kd (Rb^P A490S) of the same binder?
**A.** 7 nM

**Q.** What about the Kd (Rb^P E675Q) of the same binder?
**A.** 20 nM

**Q.** And the Kd (Rb^P M761L)?
**A.** 1.3 nM
